Results published in patent US20220175944A1 (MAGENTA THERAPEUTICS, published 2022).

How the values were obtained:
Experiment in all cases: cell-based or functional assay
[1] = target: Baboon CD117 on baboon CD34+ bone marrow cells (baboon)
[2] = target: T1, Human CD117 on Kasumi-1 cells or primary human CD34+ bone marrow cells (human, UniProt P10721 26-976)
[3] = target: T1, Human CD117 on Kasumi-1 cells or …; remark: listed apart in the source

T1 sequence (P10721 26-976 limits assumed): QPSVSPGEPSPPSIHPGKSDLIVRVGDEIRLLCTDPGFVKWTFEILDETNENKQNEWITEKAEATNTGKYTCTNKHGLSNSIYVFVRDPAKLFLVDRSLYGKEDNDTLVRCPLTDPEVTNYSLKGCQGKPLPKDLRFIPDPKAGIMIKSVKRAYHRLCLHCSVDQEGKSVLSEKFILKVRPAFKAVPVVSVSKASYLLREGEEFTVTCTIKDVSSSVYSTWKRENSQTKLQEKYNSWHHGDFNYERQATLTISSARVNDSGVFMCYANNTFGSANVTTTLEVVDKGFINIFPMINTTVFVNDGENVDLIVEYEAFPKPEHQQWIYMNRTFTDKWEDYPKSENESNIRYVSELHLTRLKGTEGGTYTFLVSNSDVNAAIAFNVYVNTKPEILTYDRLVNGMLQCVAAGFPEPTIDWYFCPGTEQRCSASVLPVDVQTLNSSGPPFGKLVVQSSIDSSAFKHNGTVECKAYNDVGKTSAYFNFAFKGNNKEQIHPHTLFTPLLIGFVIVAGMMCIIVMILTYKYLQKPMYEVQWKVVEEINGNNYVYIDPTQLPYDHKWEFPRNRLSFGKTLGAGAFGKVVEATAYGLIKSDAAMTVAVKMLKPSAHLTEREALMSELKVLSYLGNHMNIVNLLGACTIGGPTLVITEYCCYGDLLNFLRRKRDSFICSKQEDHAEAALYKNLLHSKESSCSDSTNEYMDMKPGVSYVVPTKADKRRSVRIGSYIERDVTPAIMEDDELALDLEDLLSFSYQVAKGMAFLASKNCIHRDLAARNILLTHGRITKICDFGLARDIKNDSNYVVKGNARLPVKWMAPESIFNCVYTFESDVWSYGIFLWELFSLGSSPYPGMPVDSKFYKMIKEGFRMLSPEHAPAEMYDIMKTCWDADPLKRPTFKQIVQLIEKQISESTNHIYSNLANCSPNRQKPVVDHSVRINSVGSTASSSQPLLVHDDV

B1: CK6 S239C-PBD (antibody, V domains shown)
VH: QVQLVQSGAAVKKPGESLKISCKGSGYRFTSYWIGWVRQMPGKGLEWMGIIYPGDSDTRYSPSFQGQVTISAGKSISTAYLQWSSLKASDTAMYYCARHGRGYNGYEGAFDIWGQGTMVTVSS
VL: AIQLTQSPSSLSASVGDRVTITCRASQGISSALAWYQQKPGKAPKLLIYDASSLESGVPSRFSGSGSGTDFTLTISSLQPEDFATYYCQQFNSYPLTFGGGTKVEIK
modifications: PBD (DNA cross linker) conjugated to the antibody, Fc modification S239C, DAR 1.7
IC50, killing of baboon CD34+ bone marrow cells (live cell counts by flow cytometry) [1]: 0.00066 nM
% Efficacy, in vitro Kasumi cell killing assay [2]: 60.7%
% Efficacy, in vitro hCD34 cell killing assay [3]: 97.3%

B2: CK6 S239C-PNU (antibody, V domains shown)
VH: B1 VH
VL: B1 VL
modifications: PNU (DNA topoisomerase I/II inhibitor) conjugated to the antibody, Fc modification S239C, DAR 1.4
% Efficacy, in vitro Kasumi cell killing assay [2]: 85.7%
% Efficacy, in vitro hCD34 cell killing assay [3]: 74.4%

B3: CK6-SET0207 (Fc modification D265C H435A) (antibody, V domains shown)
VH: B1 VH
VL: B1 VL
modifications: SET0207 payload ('Non-cleavable natural') conjugated to the antibody, Fc modification D265C H435A, DAR 2.0
% Efficacy, in vitro Kasumi cell killing assay [2]: 0%
% Efficacy, in vitro hCD34 cell killing assay [3]: 9.18%

B4: CK6 S239C-DM (duocarmycin) (antibody, V domains shown)
VH: B1 VH
VL: B1 VL
modifications: duocarmycin (DM) conjugated to the antibody, Fc modification S239C, DAR 1.65
% Efficacy, in vitro Kasumi cell killing assay [2]: 0%
% Efficacy, in vitro hCD34 cell killing assay [3]: 66.2%

B5: CK6 S239C-D4 (calicheamicin) (antibody, V domains shown)
VH: B1 VH
VL: B1 VL
modifications: calicheamicin (D4) conjugated to the antibody, Fc modification S239C, DAR 1.72
IC50, killing of baboon CD34+ bone marrow cells (live cell counts by flow cytometry) [1]: 14.6 nM
% Efficacy, in vitro Kasumi cell killing assay [2]: 0%
% Efficacy, in vitro hCD34 cell killing assay [3]: 52.3%
